Key:
MS2 coat protein = assay: apparent KD of MS2 coat protein; higher = weaker reporter binding; conditions: Eterna round: R107
Protocol: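 RNA-MaP round R107: designed RNA switches with theophylline, tryptophan, arginine or FMN aptamers are transcribed on-chip within common flanks. They are titrated with SNAP-549-labelled MS2 coat protein in RNA-MaP buffer (100 mM Tris pH 7.5, 80 mM KCl, 4 mM MgCl2), without ligand or with the indicated ligand. Median apparent KD per design.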

[1] = tested on: K4 kissing-loop RNA reporter; assay: apparent KD of K4 kissing-loop reporter; higher = weaker reporter binding; conditions: Eterna round: R107;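 note: bound reporter read as fluorescence of individual clusters on recovered sequencing chips by microscopy, with normalized cluster intensities fitted with a binding model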
Protocol: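 RNA-MaP round R107: designed RNA switches with theophylline, tryptophan, arginine or FMN aptamers are transcribed on-chip within common flanks. They are titrated with a labelled K4 kissing-loop RNA reporter in RNA-MaP buffer (100 mM Tris pH 7.5, 80 mM KCl, 4 mM MgCl2), without ligand or with the indicated ligand. Median apparent KD per design.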

[2] = input ligand: theophylline 20 uM
[3] = input ligand: theophylline 2 mM
[4] = input ligand: tryptophan 2.4 mM

Sequence	apparent KD of MS2 coat protein (MS2 coat protein; input ligand: arginine 13.2 mM) [nM]	apparent KD of MS2 coat protein (MS2 coat protein; input ligand: none) [nM]	apparent KD of MS2 coat protein (MS2 coat protein; [2]) [nM]	apparent KD of MS2 coat protein (MS2 coat protein; [3]) [nM]	apparent KD of MS2 coat protein (MS2 coat protein; [4]) [nM]	apparent KD of K4 kissing-loop reporter ([1]; input ligand: FMN 200 uM) [nM]	apparent KD of K4 kissing-loop reporter ([1]; input ligand: arginine 13.2 mM) [nM]	apparent KD of K4 kissing-loop reporter ([1]; input ligand: none) [nM]	apparent KD of K4 kissing-loop reporter [1, 2] [nM]	apparent KD of K4 kissing-loop reporter [1, 4] [nM]
AAAAUCCUACCUGAGGAUCACCCUGGUGAAGGAGCGCCCGAAAGGGCAGGUAGGUCGCACCUGAGGAUCACCCUGGUACCUAAAA [ArgAX 29 #DoubleMs2 #OpenEnded #AlternativeMS2]	82.6	70.6	57.4	48.3	61.8	–	–	–	–	–
AAAAUCCUAUCUGAGGAUCACCCAGGUGAAGGAGCGCCCGAAAGGGCAGGUAGGUCGCACCUGAGGAUCACCCUGGUAAACCUAA [ArgEX 21 #DoubleMS2 #OpenEnded]	68.8	76.7	76.3	90.6	65.4	–	–	–	–	–
AAAAUCCUCCAUGAGGAUCACCCAUGGGAAGGAGCGCCCGAAAGGGCAGGUAGGUCGCCCAUGAGGAUCACCCAUGGAACCUAAA [ArgAX 26 #DoubleMS2 #OpenEnded #AlternativeMS2]	43.7	56.5	112	118	43.5	–	–	–	–	–
AAACAACAUGAGGAUCACCCAUGUACCGAUACCAGCCAAAUAUAAGGCCCUUGGCAGCGGAGUAAAUCCGGAGGACAAUGGGUAA [Same State Theophylline A GF5]	8.62	39	39.2	76.9	28.3	–	–	–	–	–
AAACAUGAGGAUCACCCAUGUAUGUUAUUACGAGGACCGGUACGGCCGCCACUCGAUAGAGUAGAAGUAAAUUGUAAUUCAUGUU [JR_ExcTryptoA_Sub017]	19.3	–	18.8	16.9	–	–	–	–	–	–
AAACAUGAGGAUCACCCAUGUGGAACCGAAGGAGCGGCGCACAUGCCAGGUAGGUCGCGGGACAUGAGGACAUGAGGAUCACCCA [Same State Arginine A 3]	45.1	135	207	184	134	–	–	–	–	–
AAACGCCACGGAAGGAGCGACAUGAGGAUCACCCAUGUAGUUUUGGCGGAUGCACCCUCCUGUCAGGUAGGUCGCCGUGCGAUAA [XArg-B26]	32.6	35.8	71.8	68.5	33.4	–	–	–	–	–
AAACGUUGCUGCGAUACCAGACAUGAGGAUCACCCAUGUACCAAGGUAAGAAAAUAACAUGUCCCUUGGCAGCGCAGCAACGAAA [MAT - Exclusion Theophlline B - Mod of Eli - D3]	17.5	–	43.6	–	15.6	–	–	–	–	–
AAAGAUCGGAAACGAUCGGCGGCUUGGGCGCGAGGACCGGUACGGCCGCCACUCGGGAAACAUGAGGAUCACCCAUGUUGCUAGC [ETA NP+V+V2 #15]	12.3	–	18.4	16.8	–	–	–	–	–	–
AAAUAAAUCACAUGAGGAUCACCCAUGGAUACCAGGCCUGGAAACAGCCCUUGGCAGCCACAUGAGGAUCACCCAUGUGCUAAUA [MAT - Exclusion Theophlline A - Mod of Eli - D1]	89.8	–	194	–	152	–	–	–	–	–
AACACAUGAGGAUCACCCAUGUCCAUGUACCGAGGACCGGUACGGCCGCCACUCGACAUGAGGAUCACCCAUGUUCCAUGUUGUC [Same State Tryptophan A 3]	76	–	131	146	–	–	–	–	–	–
AACAUGAGGACGGAUACCAGUCACAUGAGGAUCACCCAUGUACAUGAGGAUCACCCAUGUGGCCCUUGGCAGCCGCAUGUGAUCA [Exclusion Theophylline B 4]	124	–	308	–	412	–	–	–	–	–
AACAUGAGGAUCACCCAUGUGUCCUCGAAACGAGGACCGGUACGGCCGCCACUCGAAUAAGGUGUUGACGAAAAGUCAGCACCAA [Mat - Exclusion - Trytophan A - D17]	111	–	314	338	–	–	–	–	–	–
AACAUGAGGAUCACCCAUGUUUUAUGGGAUACCAGAGACGAAAGUCUCCCUUGGCAGCCCAAGCUGCUCCAUACGAAAGUAUGGU [Theophylline A 17]	16	–	18.2	–	16.6	–	–	–	–	–
AACAUGUGGAUCACCCAUGUAUGUUCUGAAGGAGCGCCACAUGAGGCAGGUAGGUCGCAGGUACAUGAGGAUCACCCAUGUGUCA [Exclusion Arginine A 4]	54.5	192	111	193	158	–	–	–	–	–
UUGAUAUGAUAGUAUCUUGUUUGAUAAAGGCAGGAUAUCGUAUAUUUGAGAAGGGCCAUUAUAUGCAGUGAUGUUGCAAAUAAGU [Exclusion FMN A Gf 25]	–	–	–	–	–	43.5	56.7	41.3	61.4	40
UUGUGCAGCAAUCGAGUGAUGUUCGACGAUACCAGCCUCGAUAGAGGCCCUUGGCAGCGUAUCAUCACAUGCCAAGAGCUGCACU [#SwitchBubble 5]	–	–	–	–	–	530	362	428	368	419
UUUAUAAUGUCGGCCGCCACUGGAUUAAUAUUUGUAUAAUCUAGUUCUGAGUGAUGUUUAGAGUCCAGGACCGGGACAUUUGUUA [#10 K4 Tryptophan B Exclusion]	–	–	–	–	–	701	515	651	788	520
UUUAUAUAGUCGGCCGCCACUGAUUUUUAUAUAUGUUUAUGUUUAUACGAGUGAUGUUCGUUAUUCAGGACCGGGACUUUUGUUA [JR_SSTryptoB_Sub016]	–	–	–	–	–	108	133	109	117	102
UUUAUUAAGACGGCCGCCACUGAAUUAGAGUGAUGUUCUAAAAUUUUUAAUUUUUUUUUUUUCAGCAGGACCGGGUCAAUUAUUA [JR_SSTryptoB_Sub012]	–	–	–	–	–	128	95.3	116	142	94.5
UUUCGGUUCUGAGGAUAUUCGGACAAAUAUAGUGAUGUUGUAUAAGGAGGAGGGUGUUGGCAGUGCGGAGAAGGCAGAAGAGGAU [ExFMNB.U]	–	–	–	–	–	848	737	992	556	446
UUUCGUAGAAGUGAUACCAGACUUGAAAGUGAUGUUUUCCAAUAAUUUAAAUUUUUAGCUGUCCCUUGGCAGCACAGUUUAUUUA [JR_Nu_ExcTheophyB_Sub026]	–	–	–	–	–	218	298	263	334	165
UUUGAAAUGACUGAUACCAGUGAAAAUAUAUGUAGUGAUGUUAUAUACUAAUUUAAUAAGCGCCCUUGGCAGCAGUAUGAAUUAU [AstrosExc-theB#16]	–	–	–	–	–	763	565	927	527	560
UUUUACGAGUGAUGUUCGUAAUGUAAUAGUUAGGAUAUCGUUUUUUCGAGAAGGAACUUCGAAGUGAUACGAAAGUAUCGCUUCG [FMN A 9]	–	–	–	–	–	127	160	184	154	159
UUUUAGGUAUCUGAUACCAGAGAAAAUAUAUGUAGUGAUGUUAUAUACAAAAUAAUUAAGCUCCCUUGGCAGCAGUAUUAAUUUU [AstrosExc-TheB#3]	–	–	–	–	–	825	742	854	917	717
UUUUGCGCGUACGAUACCAGUAUCUGUAAGAGUGAUGUUCAGCGCUGAAGACAGCAGCGAUACCCUUGGCAGCGUUACAUGCUAG [theeternabot_sameState_KL_Theo_B_22]	–	–	–	–	–	797	422	553	475	530
UUUUUGGAGAAUUAUAGUGAUGUUAUGAAGGAGGAUAUCUGGAGAUGGAGAAGGCCUAGUGGCUCAGCCAUGGAGGGUGGGUGGG [ExFMNA.aA]	–	–	–	–	–	1110	527	894	655	611
UUUUUUAAUGGAAGGAGCGCGUGGGCGCAGUGAUGUUGCGCCCGACAUCACUUCAACUUAACGCAGGUAGGUCGCCAUUAUUUUU [Arginine B (Excl) V6]	–	–	–	–	–	136	128	122	119	127

Reference: the supplement of paper PMC9170038
